Test results as given in article PMC9876794 (2022).

B1: D126 (antibody, V domains shown)
VH: QVQLVQSGAEVKKPGASVKVSCKASGYTFTSYGISWVRQAPGQGLEWMGWISAYNGNTNYAQKLQGRVTMTTDTSTSTAYMELRSLRSDDTAVYYCARDDTSGWYTGDAFDIWGQGTMVTVSS
VL: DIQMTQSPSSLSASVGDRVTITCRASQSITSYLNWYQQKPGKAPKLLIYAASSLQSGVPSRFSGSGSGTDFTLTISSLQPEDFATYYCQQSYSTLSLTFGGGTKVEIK
B2: D009 (antibody, V domains shown)
VH: EVQLLESGGGLVQPGGSLRLSCAATGFTFGSYTMTWVRQAPGKGLEWVSSISVSGRRTYYAGSVQGRFTVSRDNSMNALFLQMNSLRADDTAVYYCARDAPREAYYDRTGHYIFYYGMDLWGQGTTVTVSS
VL: EIVMTQSPATLSVSPGERATLSCRASQSVSDNLAWYQQKPGQAPRLLIYGASTRAIGIPDRFTGSGSGTEFTLTISSLQSEDFAVYYCQHYNNGPSVGFGQGTRVEFK
B3: C2722 (antibody, V domains shown)
VH: EVQLVESGGGLVQPGGSLRLSCAASGFTFSSYSMNWVRQAPGKGLEWVSYISSSSSTIYYADSVKGRFTISRDNAKNSLYLQMNSLRAEDTAVYYCARDDGGGAYYDFWSGYYGDYWGQGTLVTVSS
VL: EIVLTQSPATLSLSPGERATLSCRASQSVSSYLAWYQQKPGQAPRLLIYDASNRATGIPARFSGSGSGTDFTLTISSLEPEDFAVYYCQQRSNWPPFTFGPGTKVDIK
B4: D083 (antibody, V domains shown)
VH: EVQLVQSGAEVKKPGESLKISCKGSGYSFTSHWIGWVRQMPGKGLEWMGIIYPGDSDTRYSPSFQGQVTISADKSISTAYLQWSSLKASDTAMYYCARHIKSDLWFGEKDSWGQGTLVTVSS
VL: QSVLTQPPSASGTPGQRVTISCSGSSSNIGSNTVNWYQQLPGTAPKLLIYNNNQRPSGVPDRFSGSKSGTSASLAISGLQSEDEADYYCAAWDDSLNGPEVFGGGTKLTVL
B5: C2717 (antibody, V domains shown)
VH: EVQLVESGGGLVQPGGSLRLSCAASGFTVSSNYMSWVRQAPGKGLEWVSVIYSGGSTYYADSVKGRFTISRDNSKNTLYLQMNSLRAEDTAVYYCARELYSSSSYFDYWGQGTLVTVSS
VL: QSVLTQPPSVSGAPGQRVTISCTGSSSNIGAGYDVHWYQQLPGTAPKLLIYGNSNRPSGVPDRFSGSKSGTSASLAITGLQAEDEADYYCQSYDSSLSGSGVFGGGTKLTVL
B6: C2710 (antibody, V domains shown)
VH: EVQLVESGGGLVQPGGSLRLSCAASGFTFSSYWMSWVRQAPGKGLEWVANINQDGSEIHYVDSVKGRFTISRDNAKNSLYLQMNSLRAEDTAVYYCAREGGPYDFWSGSNWFDPWGQGTLVTVSS
VL: QSALTQPASVSGSPGQSITISCTGTSSDVGGYNFVSWYQQRPGKAPKLMIYEVHNRPSGVSNHFSGSKSGNTASLTISGLQAEDEADYYCSSYTSNSLYVFGTGTKVTVL
B7: D108 (antibody, V domains shown)
VH: QVQLVQSGAEVKKPGASVKVSCKASGYTFTSSDINWVRQATGQGLEWVGWMNPNSGNTGYAQKFQGRVTMTRNTSISTAYMELSSLRSEDTAVYYCASGPYWSGYYYYFDNWGQGTLVTVSS
VL: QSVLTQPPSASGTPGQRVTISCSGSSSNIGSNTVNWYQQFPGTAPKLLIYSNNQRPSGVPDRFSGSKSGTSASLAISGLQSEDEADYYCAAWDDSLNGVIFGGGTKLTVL
B8: D053 (antibody, V domains shown)
VH: EVQLVESGGGLVKPGGSLRLSCAASGFTFSNAWMSWVRQAPGKGLEWIGRIKSNTDGGTIDYAAPVKGRFTISRDDSKNTLYLQMNSLKTEDTAVYYCTTDGAFFVVADPFDYWGQGTLVTVSS
VL: DIQMTQSPSSLSASVGDRVTITCRASQSMTNYLNWYQQKPGKAPELLIYGVSSLQSGVPSRFSGSGSGTDFTLTISSLQPEDFATYYCQQSYRTPRTFGQGTKVEIK
B9: C2712 (antibody, V domains shown)
VH: EVQLVESGGGLVQPGGSLRLSCVASGFTFSSDDIHWVRQATGKGLEWVSGIGTAGDTYYAGSVKGRFTISRENAKNSLYLQMKSLRAGDTAVYYCARGVQSWLRGYYYYYMDVWGKGTTVTVSS
VL: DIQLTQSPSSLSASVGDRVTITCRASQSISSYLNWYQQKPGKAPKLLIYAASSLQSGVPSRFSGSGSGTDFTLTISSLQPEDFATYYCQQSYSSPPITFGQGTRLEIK
B10: C2697 (antibody, V domains shown)
VH: EVQLVESGGGLVQPGGSLRLSCAASGFTFSSSYSMNWVRQAPGKGLEWVSYISSSSSTIYYADSVKGRFTISRDNAKNSLYLQMNSLRDEDTAVYYCARHYGDKTYYFYGMDVWGQGTTVTVSS
VL: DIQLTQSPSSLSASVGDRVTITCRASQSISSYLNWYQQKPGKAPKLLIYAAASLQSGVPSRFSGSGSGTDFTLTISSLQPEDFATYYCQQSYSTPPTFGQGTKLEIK
B11: C2701 (antibody, V domains shown)
VH: EVQLVESGGGLVQPGGSLRLSCAASGFTVSSNYMSWVRQAPGKGLEWVSVIYSGGSTYYADSVKGRFTISRHNSKNTLYLQMNSLRAEDTAVYYCARDYGDLFFDYWGQGTTVTVSS
VL: not shown
B12: D103 (antibody, V domains shown)
VH: QVQLVESGGGVVQPGRSLRLSCAASGFTFSSYGMHWVRQAPGKGLEWVAVISYDGSNKYYADSVKGRFTISRDNSKNTLYLQMNSLRAEDTAVYYCAKGGYYDSSAYYGPLDYWGQGTLVTVSS
VL: SYVLTQPPSVSVAPGKTARITCGGNNIGSKSVHWYQQKPGQAPVLVVYDDSDRPSGIPERFSGSNSGNTATLTISRVEAGDEADYYCQVWDSSSDHWVFGGGTKLTVL
B13: C2715 (antibody)
chain 1: not shown
chain 2: DIQLTQSPSSVSASVGDRVTITCRASQGISSWLAWYQQKPGKAPKLLIYAASSLQSGVPSRFSGSGSGTDFTLTISSLQPEDFATYYCQQANSFPRTFGQGTKVEIK
B14: C2702 (antibody, V domains shown)
VH: EVQLVESGGGLVQPGGSLRLSCAASGFTFSSYSMNWVRQAPGKGLEWVSYISSSSSTIYYADSVKGRFTISRDNAKNSLYLQMNSLRDEDTAVYYCASFLWDHSGYDLLFGMDVWGQGTTVTVSS
VL: not shown
B15: D173 (antibody, V domains shown)
VH: EVQLVQSGAEVKKPGESLRISCKGSGYSFTSYWISWVRQMPGKGLEWMGRIDPSDSYTNYSPSFQGHVTISADKSISTAYLQWSSLKASDTAMYYCASQGLVPAAIEIWDYWGQGTLVTVSS
VL: EIVLTQSPATLSLSPGERATLSCRASQSVSSYLAWYQQKPGQAPRLLIYDASNRATGIPARFSGSGSGTDFTLTISSLEPEDFAVYYCQQHSNWPLTFGGGTKVEIK
B16: D145 (antibody, V domains shown)
VH: QVQLVESGGGVVQPGRSLRLSCAASGFTFSSYGMHWVRQAPGKGLEWVAVISYDGSNKYYADSVKGRFTISRDNSKNTLYLQMNSLRAEDTAVYYCAKGSGPYYYDSSGYYSLFDYWGQGTLVTVSS
VL: EIVMTQSPATLSVSPGERATLSCRASQSISSNLAWYQQKPGQAPRLLIDGASTRATGIPARFSGSGSGTEFTLTISSLQSEDFAVYYCQQYNNWPTFGQGTKLEIK
B17: C2731 (antibody, V domains shown)
VH: QVQLQQWGAGLLKPSETLSRTCAVYGGSFSGYYWSWIRQSPGKGLEWIGEINHRGSTNYNPSLKSRVTISVDTSKNQLSLELRSVTAADTAVYYCARSPGWTTVTRPFDYWGQGALVTVSS
VL: EIVLTQSPGTLSLSPGERATLSCRASQSVSSNYLAWYQQKPGQAPRLLVYGASNRATGIPDRFSGSGSGTDFTLTISRLEPEDFAVFYCQQYSSSPVTFGQGTRLEIK
B18: D007 (antibody, V domains shown)
VH: QVQLVESGGGVVQPGGSLRLSCAASGFTFSSYGMHWVRQAPGKGLEWVAFIRYDGSNKYYADSVKGRFTISRDNSKNTLYLQMNSLRAEDTAVYYCAKDQYYYGSGSYSDYWGQGTLVTVSS
VL: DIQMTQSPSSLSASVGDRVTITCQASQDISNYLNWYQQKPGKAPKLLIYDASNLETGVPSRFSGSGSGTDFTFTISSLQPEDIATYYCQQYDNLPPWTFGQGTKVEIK
B19: C2738 (antibody, V domains shown)
VH: QVQLQESGPGLVKPSETLSLTCTVSGGSISSYYWSWIRQPAGKGLEWIGRIYTSGSTNYNPSLKSRVTMSVDTSKNQFSLKLSSVTAADTAVYYCARDLWGGSRPFNWFDPWGQGTLVTVSS
VL: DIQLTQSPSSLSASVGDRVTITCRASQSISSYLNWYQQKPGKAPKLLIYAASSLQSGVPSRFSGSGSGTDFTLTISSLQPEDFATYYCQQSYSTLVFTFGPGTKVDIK
B20: D005 (antibody, V domains shown)
VH: QVQLVQSGAEVKKPGASVKVSCKASGYTFTNYYIHWVRQAPGQGLEWMGIINPSAGSTTYAQKFQGRVTMTSDTSTSTVYMELSSLRSEDTAVYYCARAGELIPAARASFQHWGQGTLVTVSS
VL: DIQMTQSPSTLSASVGDRVTITCRASQSISTWLAWYQQKPGKAPKILIYKASSLESGVPSRFSGSGSGTEFTLTLSSLQPDDFATYYCQQYNSYSPTFGQGTKVEIK
B21: D038 (antibody, V domains shown)
VH: EVQLVQSGAEVKKPGESLKISCKGSGYSFTSYWIAWVRQMPGKGLEWMGIIYPGDSDTRYSPSFQGQVTISADKSISTAYLQWSSLKASDTAMYYCARQGYSYGYVDYWGQGTLVTVSS
VL: NFMLTQPHSVSESPGKTVTISCTRSSGSIASNYVQWYQQRPGSAPTTVIYEDNQRPSGVPDRFSGSIDSSSNSASLTISGLKTEDEADYYCQSYDSSNWVFGGGTKLTVL
B22: D148 (antibody, V domains shown)
VH: QLQLQESGPGLVKPSETLSLTCTVSGGSISSSSYYWGWIRQPPGKGLEWIGSIYYSGSTYYNPSLKSRVTISVDTSKNQFSLKLSSVTAADTAVYYCARQTIYYDSSGSLEVEPMDVWGQGTTVTVSS
VL: not shown
B23: C2698 (antibody, V domains shown)
VH: EVQLVESGGGLAQPGRSLRLSCAASGFKFDDYAMHWVRQVPGQGLEWVSGIDWNSGIIGYADSVMGRFTISRDNAKKSLYLQMNSLRTEDTALYYCAKSGGFGEFKWFDPWGQGTLVTVSS
VL: EIVMTQSPATLSVSPGERATLSCRASQSVSSNLAWYQQKPGQAPRLLIYGASTRATGFPARFSGSGSGTEFTLTISRLQSEDFAVYYCQQYNKWPRTFGQGTKLEIK
B24: D155 (antibody, V domains shown)
VH: QLQLQESGPGLVKPSETLSLTCTVSGGSISSSSYYWGWIRQPPGKGLEWIGSIYYSGSTYYNPSLKSRVTISVDTSKNQFSLKLSSVTAADTAVYYCARQPYYYDSSGINRAFDIWGQGTMVTVSS
VL: QSVLTQPRSVSGSPGQSVTISCTGTSSDVGGYNYVSWYQQHPGKAPKLMIYDVSKRPSGVPDRFSGSKSGNTASLTISGLQAEDEADYYCCSYAGTVVFGGGTKLTVL

Target: T1, SARS-CoV-2 spike RBD (WT) (Severe acute respiratory syndrome …, UniProt P0DTC2)
Experiment: ELISA
Set-up: unit not given here

**Q.** B1 was tested. Which binding score did it give?
**A.** 973

**Q.** B2 was tested. Which binding score did it give?
**A.** 2390

**Q.** With B3 as the binder, how does the binding score read?
**A.** 177

**Q.** B4 was tested. Which binding score did it give?
**A.** 62.7

**Q.** B5 was tested. Which binding score did it give?
**A.** 124

**Q.** For B6, which binding score is on record?
**A.** 9.12

**Q.** For B7, which binding score is on record?
**A.** 6120

**Q.** For B8, which binding score is on record?
**A.** 3050

**Q.** With B9 as the binder, how does the binding score read?
**A.** 7.83

**Q.** B10 was tested. Which binding score did it give?
**A.** 2060

**Q.** How did the binding score turn out when B11 was run?
**A.** 170

**Q.** How did the binding score turn out when B12 was run?
**A.** > 10000

**Q.** With B13 as the binder, how does the binding score read?
**A.** 189

**Q.** B14 was tested. Which binding score did it give?
**A.** 295

**Q.** B15 was tested. Which binding score did it give?
**A.** 181

**Q.** Which binding score does the source give for B16 here?
**A.** 0.826

**Q.** B17 was tested. Which binding score did it give?
**A.** 4400

**Q.** With B18 as the binder, how does the binding score read?
**A.** 8280

**Q.** B19 was tested. Which binding score did it give?
**A.** 21.1

**Q.** With B20 as the binder, how does the binding score read?
**A.** 96

**Q.** B21 was tested. Which binding score did it give?
**A.** > 10000

**Q.** How did the binding score turn out when B22 was run?
**A.** 29

**Q.** How did the binding score turn out when B23 was run?
**A.** 79.2

**Q.** B24 was tested. Which binding score did it give?
**A.** 1000

Target: T1, SARS-CoV-2 spike RBD (WT)
Experiment: BLI

**Q.** With B1 as the binder, how does the Kd read?
**A.** 16.7 nM

**Q.** With B2 as the binder, how does the Kd read?
**A.** 5440 nM

**Q.** Which Kd does the source give for B3 here?
**A.** 43.3 nM

**Q.** For B4, which Kd is on record?
**A.** 12.3 nM

**Q.** How did the Kd turn out when B5 was run?
**A.** 153 nM

**Q.** For B6, which Kd is on record?
**A.** 11.9 nM

**Q.** B7 was tested. Which Kd did it give?
**A.** 6840 nM

**Q.** B8 was tested. Which Kd did it give?
**A.** 2420 nM

**Q.** With B9 as the binder, how does the Kd read?
**A.** 19.6 nM

**Q.** B10 was tested. Which Kd did it give?
**A.** 101 nM

**Q.** With B11 as the binder, how does the Kd read?
**A.** 88.4 nM

**Q.** How did the Kd turn out when B12 was run?
**A.** 2700 nM

**Q.** Which Kd does the source give for B13 here?
**A.** 63.4 nM

**Q.** How did the Kd turn out when B14 was run?
**A.** 125 nM

**Q.** How did the Kd turn out when B15 was run?
**A.** 60.3 nM

**Q.** With B16 as the binder, how does the Kd read?
**A.** 46.4 nM

**Q.** How did the Kd turn out when B17 was run?
**A.** 143 nM

**Q.** With B18 as the binder, how does the Kd read?
**A.** 6720 nM

**Q.** How did the Kd turn out when B19 was run?
**A.** 10.2 nM

**Q.** B20 was tested. Which Kd did it give?
**A.** 49.8 nM

**Q.** For B21, which Kd is on record?
**A.** 306 nM

**Q.** Which Kd does the source give for B22 here?
**A.** 6.46 nM

**Q.** Which Kd does the source give for B23 here?
**A.** 152 nM

**Q.** With B24 as the binder, how does the Kd read?
**A.** 116 nM
